Assay results reported in US20160054331A1.

Target: Hexa-His tag amidated peptide HHHHHH-CONH2
Test: peptides on microspheres, PE anti-mouse IgG, Luminex

binding remaining after amidation of the C terminus (percent): < 15%
Substance: anti-C-term His tag antibody 3D5 (Invitrogen, Carlsbad, Calif.)
